Test results taken from paper PMC7948507, “Active site metals mediate an oligomeric equilibrium in Plasmodium M17 aminopeptidases” (The Journal of Biological Chemistry, 2020).
Substitutions are numbered along the chain they refer to. In names and notes the source's numbering stands.

B1: Pv-M17Δ125-151 (enzyme)
chain: MATTVPQVVSLDPTTIPIDYHTPIDDLSIEVKDISAEACPADEGLIVFLLNSQIKINSSVKDNTINEFLKEGNMENFTGKLGTSKSFYIANDQKKYVSLAYVGCGPANEETELEIRKVAYALVTLLHDSKHKKVSIIFEIKIEEALFRFFLEHLFYEYVTDERFKSADKSTETDFIKNLSLHIANADAYKGQIDKARVYFYGTYYAAQLIAAPSNYCNPVSLSNAAVELAQKVNLECKILDVKELEELKMGAYLSVGKGSMYPNKFIHLTYKGAQTGASQNEKKKIALIGKGITFDSGGYNLKAAPGSMIDLMKFDMSGCAAVLGCAYCIGTIKPDNVEVHFLSAVCENMVSKNSYRPGDIITASNGKTIEVGNTDAEGRLTLADALVYAEKLGVDYIVDIATLTGAMLYSLGTSYAGVFGNNDQLINKILSSSKTSNEPVWWLPIINEYRSSLNSKYADLNNISSSVKASSVVASLFLKEFIENTPWAHIDIAGVSWNFKARKPKGFGVRLLTEFVLNDAV
notes: also called Pv-M17 N-terminal loop deletion mutant; source: E. coli BL21 DE3, purified (Ni-NTA, SEC)
B2: Plasmodium falciparum M17 aminopeptidase PfA-M17 (residues 84-605), wild type (enzyme, UniProt Q8IL11 84-605, looked up)
chain: MASEVPQVVSLDPTSIPIEYNTPIHDIKVQVYDIKGGCNVEEGLTIFLVNNPGKENGPVKISSKVNDKNVSEFLKDENMEKFNVKLGTSKHFYMFNDNKNSVAVGYVGCGSVADLSEADMKRVVLSLVTMLHDNKLSKLTVVFEINVDKNLFRFFLETLFYEYMTDERFKSTDKNVNMEYIKHLGVYINNADTYKEEVEKARVYYFGTYYASQLIAAPSNYCNPVSLSNAAVELAQKLNLEYKILGVKELEELKMGAYLSVGKGSMYPNKFIHLTYKSKGDVKKKIALVGKGITFDSGGYNLKAAPGSMIDLMKFDMSGCAAVLGCAYCVGTLKPENVEIHFLSAVCENMVSKNSYRPGDIITASNGKTIEVGNTDAEGRLTLADALVYAEKLGVDYIVDIATLTGAMLYSLGTSYAGVFGNNEELINKILNSSKTSNEPVWWLPIINEYRATLNSKYADINNISSSVKASSIVASLFLKEFVQNTAWAHIDIAGVSWNFKARKPKGFGVRLLTEFVLNDAL
notes: M17 leucyl aminopeptidase of Plasmodium falciparum, residues 84-605; residues 1-83 (asparagine-rich low complexity region) omitted; In solution a metal-dependent equilibrium of monomer, dimer, tetramer and hexamer; also called PfLAP; PfA-M17 WT; source: E. coli BL21 DE3, purified (Ni-NTA, SEC)
B3: PfA-M17 (D379A + E461L) (enzyme)
chain: B2 chain with D296A, E378L
notes: also called PfA-M17(AL); PfA-M17 (AL); source: E. coli BL21 DE3, purified (Ni-NTA, SEC)
B4: Plasmodium vivax M17 aminopeptidase Pv-M17 (residues 73-621), wild type (enzyme, UniProt A5K3U9 73-621, looked up)
chain: MATTVPQVVSLDPTTIPIDYHTPIDDLSIEVKDISAEACPADEGLIVFLLNSAPKHSSSGGSGGNGGSAGSSGNGEGGAQIKINSSVKDNTINEFLKEGNMENFTGKLGTSKSFYIANDQKKYVSLAYVGCGPANEETELEIRKVAYALVTLLHDSKHKKVSIIFEIKIEEALFRFFLEHLFYEYVTDERFKSADKSTETDFIKNLSLHIANADAYKGQIDKARVYFYGTYYAAQLIAAPSNYCNPVSLSNAAVELAQKVNLECKILDVKELEELKMGAYLSVGKGSMYPNKFIHLTYKGAQTGASQNEKKKIALIGKGITFDSGGYNLKAAPGSMIDLMKFDMSGCAAVLGCAYCIGTIKPDNVEVHFLSAVCENMVSKNSYRPGDIITASNGKTIEVGNTDAEGRLTLADALVYAEKLGVDYIVDIATLTGAMLYSLGTSYAGVFGNNDQLINKILSSSKTSNEPVWWLPIINEYRSSLNSKYADLNNISSSVKASSVVASLFLKEFIENTPWAHIDIAGVSWNFKARKPKGFGVRLLTEFVLNDAV
notes: M17 leucyl aminopeptidase of Plasmodium vivax, residues 73-621; N-terminal truncation of 72 residues; it is residues 73-621; Synthetic gene (DNA 2.0) in pJ404; also called PvLAP; Pv-M17 WT; source: E. coli BL21 DE3, purified (Ni-NTA, SEC)
B5: Pv-M17 (D395A and E477L) (enzyme)
chain: B4 chain with D323A, E405L
notes: also called Pv-M17(AL); Pv-M17 (AL); source: E. coli BL21 DE3, purified (Ni-NTA, SEC)

Experiments:
[1] = biological target: the molecule itself; test: crystal structure; 0.1 M HEPES pH 6.5, 15% PEG 3350, 0.15 M (NH4)2SO4; two hexamers in the asymmetric unit
[2] = biological target: the molecule itself; test: AUC; sedimentation velocity, 0.5 mg/ml, 20 °C, 40,000 rpm, 50 mM HEPES pH 8.0, 0.3 M NaCl, no metal added
[3] = biological target: the molecule itself; test: SEC-MALS; 100 μl samples at 3 mg/ml, Superdex S200 Increase 10/300 GL, 50 mM HEPES pH 8.0, 0.3 M NaCl, no metal added
[4] = biological target: the molecule itself; test: SEC; in the presence of 100 mM EDTA
[5] = biological target: the molecule itself; test: AUC; sedimentation velocity, 0.5 mg/ml, 20 °C, 50 mM HEPES pH 8.0, 0.3 M NaCl with 50 μM MnCl2

Row | Protein | stoichiometry N [3] | binding result [2] | further results
1 | B1 |  |  | stoichiometry N [1]: 6
2 | B2 | 6 |  | stoichiometry N [2]: 2
3 | B3 |  | binds | 
4 | B4 | 2 |  | stoichiometry N [4]: 4; stoichiometry N [5]: 6
5 | B5 |  | binds | 
